According to article PMC8199443:

Molecular target: OpuABC-SS, OpuABC subunit of the ABC transporter OpuA with a C-terminal TwinStrepII-tag (Lactococcus lactis)
Experiment: SEC; affinity-purified OpuA reconstituted in MSP1D1 nanodiscs (DOPE/DOPC/DOPG; OpuA/MSP1D1/lipid 1:20:2000 or 1:20:1000), Superdex 200 Increase 10/300 GL, 50 mM KPi pH 7.0, 200 mM KCl; peak fraction on SDS-PAGE

OpuABC-SS, OpuABC subunit of the ABC transporter OpuA with a C-terminal TwinStrepII-tag (natural protein)
stoichiometry N: 2
